Measurements from patent publication US20250059295A1 (AstraZeneca / MedImmune, published 2025).

Experiments:
[1] = target: T1, CD8 (cluster of differentiation 8), CD8ab (UniProt P01732 22-235; P10966 22-210); experiment: flow cytometry on cells carrying CD8
T1 construct: whole, on cells; The method names Jurkat (TCR neg) CD8ab+ cells
Protocol: (§1) Cell based binding assays were performed on BD FACSymphony™ A5 Cell Analyzer. To determine binding affinity of AZD6621, C4-2 cells and Jurkat (TCR neg) CD8ab+ cells expressing Steap2 and CD8ab respectively were used for the assay. The cells were harvested and resuspended in FACS buffer (DPBS-1X, 2% FBS, & 5 mM EDTA) at 2×10e6 cells/ml. Cells were seeded in U-bottom Tissue Culture treated 96 Well-plate at 50 ul/well making the cell number at 100,000 per well. The test articles (AZD6621) titration were prepared (2×) using FACS buffer with the starting working concentration of 600 nM and with 1:4 dilution up to 8 titration points. Cells (50 ul/well) were then combined with primary antibody (50 ul/well) titration and incubated at 4° C. for 1 hour. After incubation, the cells were washed 2× using 200 ul of FACS buffer and resuspended with freshly prepared FACS buffer (100 ul/well) containing secondary antibody (Anti-H+L: Goat anti-Human IgG (H+L) Cross-Adsorbed Secondary Antibody, Alexa Fluor 647 (Invitrogen #A-21445) at 1:400 dilution) & DAPI (Live/Dead stain). The secondary antibody was incubated at 4° C. for 1 hour. […] The data was analyzed with FlowJo v 10.6.1. The target receptor binding was determined using geometric mean calculation on FlowJo software detecting the positive APC signal in each well. […]

[2] = target: T2, six transmembrane epithelial antigen of prostate-2 (STEAP2) (human, UniProt Q8NFT2 1-490); experiment: flow cytometry on C4-2 cells expressing STEAP2
T2 construct: whole, on cells
T2 sequence (looked up): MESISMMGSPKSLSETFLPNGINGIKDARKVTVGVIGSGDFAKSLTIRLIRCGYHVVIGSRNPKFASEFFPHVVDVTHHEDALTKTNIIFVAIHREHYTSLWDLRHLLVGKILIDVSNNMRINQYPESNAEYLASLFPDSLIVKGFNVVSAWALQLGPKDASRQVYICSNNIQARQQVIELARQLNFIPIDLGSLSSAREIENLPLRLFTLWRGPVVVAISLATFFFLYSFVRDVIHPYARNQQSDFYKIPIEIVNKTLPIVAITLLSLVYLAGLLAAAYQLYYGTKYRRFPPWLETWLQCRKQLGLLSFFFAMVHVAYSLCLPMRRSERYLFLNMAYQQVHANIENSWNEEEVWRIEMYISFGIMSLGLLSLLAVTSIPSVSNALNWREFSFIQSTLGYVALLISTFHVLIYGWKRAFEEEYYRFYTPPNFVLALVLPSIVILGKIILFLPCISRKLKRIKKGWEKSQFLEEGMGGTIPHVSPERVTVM
Protocol: as §1

T1 sequence (P01732 22-235, chain 1 of 2): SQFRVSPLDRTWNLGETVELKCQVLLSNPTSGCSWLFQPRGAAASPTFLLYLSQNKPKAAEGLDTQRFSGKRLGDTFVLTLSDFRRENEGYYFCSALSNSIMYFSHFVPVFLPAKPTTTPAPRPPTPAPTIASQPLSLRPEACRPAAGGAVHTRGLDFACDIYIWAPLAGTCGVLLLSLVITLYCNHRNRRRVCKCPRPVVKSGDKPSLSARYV
T1 sequence (P10966 22-210, chain 2 of 2): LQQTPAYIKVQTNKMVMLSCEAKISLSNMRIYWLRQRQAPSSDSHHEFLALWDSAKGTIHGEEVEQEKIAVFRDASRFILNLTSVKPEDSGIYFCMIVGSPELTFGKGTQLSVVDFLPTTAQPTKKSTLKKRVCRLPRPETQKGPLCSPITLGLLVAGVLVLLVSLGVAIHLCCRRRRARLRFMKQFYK

binding result [1]: binds | binding result [2]: binds
B1: 40A3LO12-TED4-K17/E75 (other)
heavy 1: QVQLQQSGPGLVKPSQTLSLTCAISGDSVSRNSAVWNWIRQSPSRGLEWLGRTYYRSKWYNDYAVSVKSRITINPDTSKNQFSLQLNSVTPEDTAVYYCARGLRQNQFYYYMDVWGKGTTVTVSSASTKGPSVFPLAPSSKSTSGGTAALGCLVKDYFPEPVTVSWNSGALTSGVHTFPAVLQSSGLYSLKSVVTVPSSSLGTQTYICNVNHKPSNTKVDKRVEPKSCDGGGGSGGGGSEVQLVESGGALVKPGGSLRLSCAASGFTFTEAWMHWVRQAPGKQLEWVAQIKDRSQTYATYYAESVKGRFTISRDDSKNTLYLQMNSLKTEDTAVYYCRGVYYANAPFDYWGQGTLVTVSSASTKGPSVCPLAPSSKSTSGGTADLGCLVKDYFPEPVTVSWNSGALTSGVHTFPAVLQSSGLYSLSSVVTVPSSSLGTQTYICNVNHKPSNTKVDKRVEPKSVDKTHTCPPCPAPPVAGPSVFLFPPKPKDTLMISRTPEVTCVVVDVKHEDPEVKFNWYVDGVEVHNAKTKPREEQYNSTYRVVSVLTVLHQDWLNGKEYKCKVSNKALPAPIEKTISKAKGQPREPQVYTLPPCREEMTKNQVSLWCLVKGFYPSDIAVEWESNGQPENNYKTTPPVLDSDGSFFLYSKLTVDKSRWQQGNVFSCSVMHEALHNHYTQKSLSLSPGK
light 1: not shown
heavy 2: EVQLLESGGGLVQPGGSLRLSCAASGFTFDDYAIGWFRQAPGKEREGVSCIRVSDGSTYYADSVKGRFTISRDNSKNTLYLQMNSLRAEDTAVYYCAAGSLYTCVQSIVWPARPYYDMDYWGQGTLVTVSSGGGGSGGGGSQVQLQQSGPGLVKPSQTLSLTCAISGDSVSRNSAVWNWIRQSPSRGLEWLGRTYYRSKWYNDYAVSVKSRITINPDTSKNQFSLQLNSVTPEDTAVYYCARGLRQNQFYYYMDVWGKGTTVTVSSASTKGPSVFPLAPSSKSTSGGTAALGCLVKDYFPEPVTVSWNSGALTSGVHTFPAVLQSSGLYSLKSVVTVPSSSLGTQTYICNVNHKPSNTKVDKRVEPKSCDKTHTCPPCPAPPVAGPSVFLFPPKPKDTLMISRTPEVTCVVVDVKHEDPEVKFNWYVDGVEVHNAKTKPREEQYNSTYRVVSVLTVLHQDWLNGKEYKCKVSNKALPAPIEKTISKAKGQPREPQVCTLPPSREEMTKNQVSLSCAVKGFYPSDIAVEWESNGQPENNYKTTPPVLDSDGSFFLVSKLTVDKSRWQQGNVFSCSVMHEALHNHYTQKSLSLSPGK
light 2: DIVMTQSPLSLPVTPGEPASISCRSSQSLVHNTGNTYLSWYLQKPGQSPQSLIYKVSNRASGVPDRFSGSGSGTDFTLKISRVEAEDVGVYYCGQGTQAPFTFGSGTKVEIKGQPKAAPSVRLFPPCSEELQANKATLVCLISDFYPGAVTVAWKADSSPVKAGVETTTPSKQSNNKYAASSYLSLTPEQWKSHRSYSCQVTHEGSTVEKTVAPTEVS
notes: also called TED4 LO12
